Holding throughout (assay type): cell-based, human
Experiment [1] relates to Cord blood-derived CD4+/CD25- cells. Kind of experiment: Priming of naive CD4+ T cells with active MMP-2-loaded DCs with rhIL-12 or blocking mAb for OX40L or IL-4. As for the experimental part: […] CD4^+ T cells were then stimulated with the MMP-2 peptide pool (2 μM) for 6 h before intracellular staining of cytokines. Contour plots representing cytokine production by CD4^+ T cells are shown for donor CB31 CD4^+ T cells primed to MMP-2 alone, or together with rhIL-12, anti-OX40L mAb or anti-IL-4 mAb. (B) Percentages of MMP-2-specific CD4^+ T cells, secreting indicated cytokines, are represented for all donors. For each cytokine, 5 paired t-tests were used to compare “no conditioning” versus various conditions. P values≦0.01 (*) were considered statistically significant using a Bonferroni correction for 5 comparisons.
T Cell culture, stimulation and priming. Peripheral blood mononuclear cells (PBMCs) were purified from healthy donor-(HD) or cord blood donor-(CB) derived buffy coats (New York Blood Center) by Ficoll-Paque Plus (GE Healthcare) centrifugation. CD4^+/CD25^− cells were enriched (>90%) by magnetic cell sorting (Miltenyi Biotec) and primed/stimulated for 12-15 days either with irradiated (35Gy) autologous CD4^− cells or with autologous mature DCs in IMDM (GIBCO) supplemented with 1 mM HEPES (Life Technologies), 2 mM L-glutamine (Sigma), streptomycin (100 UI/mL)/penicillin (100 μg/mL) (Sigma) and 5% heat inactivated pooled human serum (PHS; Valley Biomedical) in the presence of rhIL-2 (10 UI/mL) and IL7 (5 ng/mL) (R&D Systems). Antigen presenting cells (CD4^− cells or DCs) were loaded either with peptides (2 μM) or with the MMP-2 protein (10 μg/mL) for 2 and 5 h, respectively. DCs were matured using the TLR3 agonist poly(I:C) at 5 μg/mL/10^6 DCs (Amersham). To generate T cell clones, we originally relied on our published methodology (Godefroy et al., 2006; Godefroy et al., 2007; the entire contents of each of which is incorporated herein by reference), involving enrichment of IFNγ-secreting cells upon short-term culture and peptide stimulation to generate MMP-2 responsive clones. Briefly, CD4^+ T cells were stimulated by CD4^− cells irradiated and pulsed with peptides for 12 days in the presence of rhIL-2 and rhIL-7. CD4^+ T cells were then restimulated with peptides for 3 hours before capturing IFNγ-secreting specific cells using a bispecific antibody coating T cells and capturing produced IFNγ. Positive cells were purified magnetically before being cloned. Although MMP-2-specific cells could be isolated, it was realized that IFNγ secretion was marginal compared to their secretion of IL-4 and TNFα. […]
Intracellular staining T-bet and GATA-3 expression was measured on resting T cells. […] Cytokine production by T cells was also assessed by intracellular staining T cells were stimulated with 2 μM overlapping peptides. […]

The test system is the same in experiment [2]. In words: Priming of naive cord blood CD4+ T cells with autologous CD4- cells loaded with different sources of MMP-2. Conditions: for percentage of MMP-2-specific CD4+ T cells secreting IL-4, mean: 11 cord blood donors, 15 days after priming, after background subtraction; for mean of the individual differences in IL-4 secreting cells versus priming with active MMP-2: paired within donors. As to the method: Cord blood-derived CD4^+/CD25^− cells from 11 donors were stimulated with irradiated autologous CD4^− cells loaded either with active MMP-2, heat-inactivated (HI) MMP-2 or with MMP-2 pre-incubated with a specific inhibitor (+I). After 15 days, CD4^+ T cells were stimulated with the MMP-2 peptide pool (2 μM) for 6 h before intracellular staining of cytokines. (A) Density plots representing cytokine production by CD4^+ T cells are shown for the representative donor CB35 primed to MMP-2 either in its active form or after heat-inactivation. Numbers indicate percentages of cytokine-producing cells upon MMP-2 peptide stimulation. […] MMP-2 enzymatic activity was controlled (FIG. 13C-D). For each cytokine, 3 paired t-tests were used to compare active MMP-2 to heat inactivated MMP-2, to MMP-2+I, and to MMP-2 peptides. P values≦0.0167 (*) were considered statistically significant using a Bonferroni correction for 3 comparisons.
(§1) T Cell culture, stimulation and priming. Peripheral blood mononuclear cells (PBMCs) were purified from healthy donor-(HD) or cord blood donor-(CB) derived buffy coats (New York Blood Center) by Ficoll-Paque Plus (GE Healthcare) centrifugation. CD4^+/CD25^− cells were enriched (>90%) by magnetic cell sorting (Miltenyi Biotec) and primed/stimulated for 12-15 days either with irradiated (35Gy) autologous CD4^− cells or with autologous mature DCs in IMDM (GIBCO) supplemented with 1 mM HEPES (Life Technologies), 2 mM L-glutamine (Sigma), streptomycin (100 UI/mL)/penicillin (100 μg/mL) (Sigma) and 5% heat inactivated pooled human serum (PHS; Valley Biomedical) in the presence of rhIL-2 (10 UI/mL) and IL7 (5 ng/mL) (R&D Systems). Antigen presenting cells (CD4^− cells or DCs) were loaded either with peptides (2 μM) or with the MMP-2 protein (10 μg/mL) for 2 and 5 h, respectively. DCs were matured using the TLR3 agonist poly(I:C) at 5 μg/mL/10^6 DCs (Amersham). To generate T cell clones, we originally relied on our published methodology (Godefroy et al., 2006; Godefroy et al., 2007; the entire contents of each of which is incorporated herein by reference), involving enrichment of IFNγ-secreting cells upon short-term culture and peptide stimulation to generate MMP-2 responsive clones. Briefly, CD4^+ T cells were stimulated by CD4^− cells irradiated and pulsed with peptides for 12 days in the presence of rhIL-2 and rhIL-7. CD4^+ T cells were then restimulated with peptides for 3 hours before capturing IFNγ-secreting specific cells using a bispecific antibody coating T cells and capturing produced IFNγ. Positive cells were purified magnetically before being cloned. Although MMP-2-specific cells could be isolated, it was realized that IFNγ secretion was marginal compared to their secretion of IL-4 and TNFα. IFNγ-secreting cells in response to MMP-2 peptide pool were enriched by cytokine-guided magnetic cell sorting (Miltenyi Biotec) as described above and cloned the following day by limiting dilution in the presence of irradiated allogeneic PBMCs, 1 μg/mL phytohemagglutinin-L (Sigma) and 150 UI/mL rhIL-2. Tumor infiltrating lymphocytes (TILs) were provided by Pr. F. Jotereau and B. Dréno. They were obtained from tumor-invaded lymph nodes of melanoma patients (stage Mb) and expanded ex vivo. These patients received autologous TILs and IL-2 infusions in a clinical trial (Labarriere et al., 2002). This protocol was approved by the Institutional Ethics Committee and registered with regulatory state authority in France (Nantes).
Intracellular staining T-bet and GATA-3 expression was measured on resting T cells. Cells were fixed (4% paraformaldehyde for 10 min at RT), permeabilized with 0.1% saponin, and stained for intracellular transcription factors. Cytokine production by T cells was also assessed by intracellular staining T cells were stimulated with 2 μM overlapping peptides. After 1 h, 10 μg/mL brefeldin A was added to the cells. […]

For experiment [3] the test system is unchanged. Kind of experiment: Priming of naive CD4+ T cells to Melan-A/MART-1 or NY-ESO-1 with DCs pre-incubated with MMP-2. As to the method: (A) Cord blood-derived CD4^+/CD25^− cells were stimulated with autologous poly(I:C)-matured DCs pulsed with overlapping peptides spanning either Melan-A/MART-1 or NY-ESO-1. Prior to poly(I:C) addition, DCs were incubated with or without MMP-2 (active or heat-inactivated) for 1 h. MMP-2 enzymatic activity was controlled (FIG. 13C-D). After 15 days, CD4^+ T cells were stimulated with the Melan-A/MART-1 or NY-ESO-1 peptide pools (2 μM) for 6 h before intracellular staining of cytokines. Percentages of antigen-specific CD4^+ T cells, secreting indicated cytokines, are represented for all donors. (B) Contour plots showing percentages of cytokine-producing CD4^+ T cells are shown for representative donor CB45 primed to Melan-A/MART-1. Percentage of secreting cells upon peptide stimulation was considered specific/positive when it exceeded by more than twofold the background (cytokine-secreting cells in the absence of stimulation) and had more than 0.5% of responding cells (after background subtraction) for at least one cytokine. For each cytokine, 2 paired t-tests were used to compare priming in the presence of active MMP-2 to either priming in the absence of active MMP-2 or with HI MMP-2. The Bonferroni adjustment was used for multiple comparisons. P values≦0.025 (*) were considered statistically significant using a Bonferroni correction for 2 comparisons.
as §1, with “(Nantes). […]” for “(Nantes).”

[4] abbreviates: rhIL-12 10 ng/mL or mAb 10 μg/mL throughout priming.

B1: rhIL-12: recombinant human IL-12 from R&D Systems (protein)
chain 1: RNLPVATPDPGMFPCLHHSQNLLRAVSNMLQKARQTLEFYPCTSEEIDHEDITKDKTSTVEACLPLELTKNESCLNSRETSFITNGSCLASRKTSFMMALCLSSIYEDLKMYQVEFKTMNAKLLMDPKRQIFLDQNMLAVIDELMQALNFNSETVPQKSSLEEPDFYKTKIKLCILLHAFRIRAVTIDRVMSYLNAS
chain 2: IWELKKDVYVVELDWYPDAPGEMVVLTCDTPEEDGITWTLDQSSEVLGSGKTLTIQVKEFGDAGQYTCHKGGEVLSHSLLLLHKKEDGIWSTDILKDQKEPKNKTFLRCEAKNYSGRFTCWWLTTISTDLTFSVKSSRGSSDPQGVTCGAATLSAERVRGDNKEYEYSVECQEDSACPAAEESLPIEVMVDAVHKLKYENYTSSFFIRDIIKPDPPKNLQLKPLKNSRQVEVSWEYPDTWSTPHSYFSLTFCVQVQGKSKREKKDRVFTDKTSATVICRKNASISVRAQDRYYSSSWSEWASVPCS
Turning to B1, in experiment [1] (doses as low as 1 ng/mL), the IFNγ-secreting cells result was “more” and the “percentages of IL4-secreting T cells” value is listed as “lower percentages”. In addition, in experiment [1] (setting [4]), the “IFNγ secretion by primed MMP-2-specific CD4+ T cells versus no conditioning” value is “more” and the “IL-4 secretion by primed MMP-2-specific CD4+ T cells versus no conditioning” value is given as “less”.

B2: heat-inactivated MMP-2: MMP-2 enzyme inactivated by heating to 56° C. for 45 min (protein, UniProt P08253 110-660, looked up)
72 kDa type IV collagenase: YNFFPRKPKWDKNQITYRIIGYTPDLDPETVDDAFARAFQVWSDVTPLRFSRIHDGEADIMINFGRWEHGDGYPFDGKDGLLAHAFAPGTGVGGDSHFDDDELWTLGEGQVVRVKYGNADGEYCKFPFLFNGKEYNSCTDTGRSDGFLWCSTTYNFEKDGKYGFCPHEALFTMGGNAEGQPCKFPFRFQGTSYDSCTTEGRTDGYRWCGTTEDYDRDKKYGFCPETAMSTVGGNSEGAPCVFPFTFLGNKYESCTSAGRSDGKMWCATTANYDDDRKWGFCPDQGYSLFLVAAHEFGHAMGLEHSQDPGALMAPIYTYTKNFRLSQDDIKGIQELYGASPDIDLGTGPTPTLGPVTPEICKQDIVFDGIAQIRGEIFFFKDRFIWRTVTPRDKPMGPLLVATFWPELPEKIDAVYEAPQEEKAVFFAGNEYWIYSASTLERGYPKPLTSLGLPPDVQRVDAAFNWSKNKKTYIFAGDKFWRYNEVKKKMDPGFPKLIADAWNAIPDNLDAVVDLQGGGHSYFFKGAYYLKLENQSLKSVKFGSIKSDWLGC
modifications: heat-inactivated
B2: in experiment [2], the “percentage of MMP-2-specific CD4+ T cells secreting IL-4, mean” value was determined as 0.45% and the “mean of the individual differences in IL-4 secreting cells versus priming with active MMP-2” value is given as 1.80. Besides, in experiment [3], the “IFNγ, mean of differences relative to priming in the presence of active MMP-2” value is 0.21; the “IL-2, mean of differences relative to priming in the presence of active MMP-2” value is listed as 0.11; the “IL-4, mean of differences relative to priming in the presence of active MMP-2” value amounted to 1.92.

B3: MMP-2+I: MMP-2 enzyme inactivated by addition of the MMP-2 inhibitor III at 100 nM for 20 min (protein, UniProt P08253 110-660, looked up)
72 kDa type IV collagenase: YNFFPRKPKWDKNQITYRIIGYTPDLDPETVDDAFARAFQVWSDVTPLRFSRIHDGEADIMINFGRWEHGDGYPFDGKDGLLAHAFAPGTGVGGDSHFDDDELWTLGEGQVVRVKYGNADGEYCKFPFLFNGKEYNSCTDTGRSDGFLWCSTTYNFEKDGKYGFCPHEALFTMGGNAEGQPCKFPFRFQGTSYDSCTTEGRTDGYRWCGTTEDYDRDKKYGFCPETAMSTVGGNSEGAPCVFPFTFLGNKYESCTSAGRSDGKMWCATTANYDDDRKWGFCPDQGYSLFLVAAHEFGHAMGLEHSQDPGALMAPIYTYTKNFRLSQDDIKGIQELYGASPDIDLGTGPTPTLGPVTPEICKQDIVFDGIAQIRGEIFFFKDRFIWRTVTPRDKPMGPLLVATFWPELPEKIDAVYEAPQEEKAVFFAGNEYWIYSASTLERGYPKPLTSLGLPPDVQRVDAAFNWSKNKKTYIFAGDKFWRYNEVKKKMDPGFPKLIADAWNAIPDNLDAVVDLQGGGHSYFFKGAYYLKLENQSLKSVKFGSIKSDWLGC
modifications: with MMP-2 inhibitor III
In the case of B3, in experiment [2], the “percentage of MMP-2-specific CD4+ T cells secreting IL-4, mean” value is recorded as 0.12% and the “mean of the individual differences in IL-4 secreting cells versus priming with active MMP-2” value came to 1.47.

Values taken from patent publication US9395368B2, “Methods, agents and peptides for inducing an immune response to matrix metalloproteinase-2 expressing tumors” (New York University, priority 2010, dated 2016).
